These results are taken from patent publication US5834184A, “In vivo selection of RNA-binding peptides” (priority 1995, dated 1998).

Data set [1] in a line: Circular dichroism, helical content of synthetic peptides. Format: physicochemical. To be noted: estimated from ellipticity at 222 nm; 10 mM potassium phosphate pH 7.5, 100 mM KF, 4° C. (FIG. 4B). On the procedure:
FIG. 4B: Circular dichroism spectra of Rev34-40 (.box-solid.), Rev34-47 (S34) (.smallcircle.), Rev-like peptide clone 24 (.quadrature.), clone 57 peptide (.circle-solid.), and clone 41 peptide (.diamond.).
Circular dichroism was used to assess whether the selected peptides adopted α-helical conformations. Circular dichroism spectra were measured using an Aviv model 62DS spectropolarimeter. Samples were prepared in 10 mM potassium phosphate buffer, pH 7.5 and 100 mM KF. Spectra were recorded using a 1 cm pathlength cuvette at 4° C. and signal was averaged for 5 sec at each wavelength. Scans were repeated five times and averaged.

The subject of another data set is BIV TAR. Briefly: Antitermination assay (β-galactosidase reporter in E. coli), BIV TAR reporter. The arrangement: key to X-gal: +++++, 200 units β-galactosidase/1 OD600 unit cells; ++++, 100-200 units; +++, 10-100 units; ++, 2-10 units; +, 1-10 units; -, background. To be noted: BIV TAR reporter (Table 1). Format: cell-based. An excerpt: (§1) Synthetic oligonucleotide cassettes encoding HIV Rev (ma[…]-aaaan) (SEQ ID NO: 26), BIV Tat (mg[…]gggn) (SEQ ID NO: 27), and HIV Tat ([…]) (SEQ ID NO: 28) peptides were cloned into the unique BsmI and NcoI sites of pBRptacN^* (Franklin, J. Mol Biol 231, 343 (1993)), creating fusion proteins at amino acid 20 of the λ N protein. The sequence encoding the fusion protein was linked to a tac promoter.
(§2) A second pACYC-derived vector was constructed encoding a tac promoter linked to the phage λ termination site Nut and a β-galactosidase structural gene. […]
(§3) Plasmids were transformed into E. coli strain N567 (Franklin & Doelling, J. Bacteriol. 171, 2513 (1989)) and bacteria were grown on LB plates or in tryptone broth containing 50 mg/l ampicillin and/or 15 mg/l chloramphenicol. In the β-galactosidase colony color assay, the number of +s represents visual estimation of blue intensity after growing colonies on plates containing 0.08 mg/ml X-gal and 0.024 mg/ml IPTG (to induce the tac promoters) for ~48 hr at 34° C. β-galactosidase activity was also measured in permeabilized cells using an ONPG colorimetric assay (Sambrook et al. Molecular Cloning (Cold Spring Harbor Laboratory Press, Cold Spring Harbor, 1989)). […]

A further data set deals with HIV TAR. Nature of the data set: Antitermination assay (β-galactosidase reporter in E. coli), HIV TAR reporter. Format: cell-based. Details: key to X-gal: +++++, 200 units β-galactosidase/1 OD600 unit cells; ++++, 100-200 units; +++, 10-100 units; ++, 2-10 units; +, 1-10 units; -, background.
Text: as §1, §2, §3

In the next data set the test system is HIV RRE. Briefly: Antitermination assay (β-galactosidase reporter in E. coli), HIV RRE reporter. It counts as cell-based. The arrangement: key to X-gal: +++++, 200 units β-galactosidase/1 OD600 unit cells; ++++, 100-200 units; +++, 10-100 units; ++, 2-10 units; +, 1-10 units; -, background. The conditions noted are these: HIV RRE reporter (Table 1).
Text: as §1, §2, §3

The subject of data set [2] is Nut^- (a Nut site deletion) reporter. Briefly: Antitermination assay (β-galactosidase reporter in E. coli), Nut^- reporter. The arrangement: key to X-gal: +++++, 200 units β-galactosidase/1 OD600 unit cells; ++++, 100-200 units; +++, 10-100 units; ++, 2-10 units; +, 1-10 units; -, background. Format: cell-based, phage λ.
Text: as §1, §2, §3

The test system of data set [3] is Nut reporter (λ Nut site, Box B). Briefly: Antitermination assay (β-galactosidase reporter in E. coli), Nut reporter. Format: cell-based, phage λ.
Text: as §1, §2, §3

Where [4] appears, read: colony colour on X-gal/IPTG plates.
The mark [5] stands for this setting: permeabilized cells, 1 hr IPTG induction.

Regarding “14 amino acid wild-type Rev peptide: synthetic 14 amino acid Rev peptide, succinyl capped, four alanines and amide at the C-terminus”, the helical content in data set [1] is recorded as 11%.

B1: N: wild-type phage λ N antiterminator protein (protein, UniProt P03045 1-107, looked up)
Antitermination protein N: MDAQTRRRERRAEKQAQWKAANPLLVGVSAKPVNRPILSLNRKPKSRVESALNPIDLTVLAEYHKQIESNLQRIERKNQRTWYSKPGERGITCSGRQKIKGKSIPLI
Consider B1, for which the X-gal entry with BIV TAR (setting [4]) is reported as “-”; in the data set with HIV TAR (setting [4]) it was “-”; in the data set with HIV RRE (setting [4]), “-”; in data set [2] (colony colour on X-gal/IPTG plates ~48 hr at 34° C., E. coli N567), “-”; in data set [3] (colony colour on X-gal/IPTG plates ~48 hr at 34° C.), “+++++ (+++++, 200 units β-galactosidase/1 OD600 unit cells)”. Further, the ONPG in the data set on BIV TAR (permeabilized cells) is recorded as 2.9 units β-galactosidase/1 OD600; in the data set with HIV TAR (permeabilized cells), 2.4 units β-galactosidase/1 OD600; with HIV RRE (permeabilized cells) it was 2.5 units β-galactosidase/1 OD600; in data set [2] (setting [5]), 1.9 units β-galactosidase/1 OD600; in data set [3] (setting [5]), 1020 units β-galactosidase/1 OD600.
